Results as given in US6020130, “Nucleic acid ligands that bind to and inhibit DNA polymerases” (NeXstar Pharmaceuticals, Inc.).

Experiments:
[1] = target: T1, Taq DNA polymerase (UniProt P19821 P19821:1-832); experiment: inhibition; hairpin extension assay; IT50 41 C; conditions: tags: rTaq, 94 kDa, Roche Molecular Systems / Perkin Elmer
Method: (§1) In a typical inhibition assay, a 20 μL reaction contained either 0.25 pmoles of Taq polymerase (5 U) or 0.125 pmoles of Tth polymerase (2.5 U), oligonucleotide inhibitor (at varying concentrations), 10 mM Tris-HCl (pH 8.3), 50 mM KCl, 2.5 mM MgCl_2, and 1 mM each dNTPs. Gel purified, 5'-end-labeled hairpin DNA substrate (DNA-HP; 5'-[…]-3') was then added to a final concentration of 250 nM and the reaction was incubated at 30° C. for 1 hour. The reaction was stopped by adding 5 μL of 0.5 M EDTA (pH 8.0) followed by formamide gel loading buffer. Extension products were resolved on 10% polyacrylamide gels under denaturing conditions. The amount of extension products were quantitated by phosphorimager. The amounts of products formed in the presence of inhibitor was normalized to the product formed in the absence of an inhibitor to obtain the percent of product.

[2] = target: T2, Tth DNA polymerase (UniProt P52028 P52028:1-834); experiment: inhibition; hairpin extension assay; IT50 34.5 C; conditions: tags: rTth, 94 kDa, Roche Molecular Systems / Perkin Elmer
T2 sequence (P52028 whole entry, one chain of several): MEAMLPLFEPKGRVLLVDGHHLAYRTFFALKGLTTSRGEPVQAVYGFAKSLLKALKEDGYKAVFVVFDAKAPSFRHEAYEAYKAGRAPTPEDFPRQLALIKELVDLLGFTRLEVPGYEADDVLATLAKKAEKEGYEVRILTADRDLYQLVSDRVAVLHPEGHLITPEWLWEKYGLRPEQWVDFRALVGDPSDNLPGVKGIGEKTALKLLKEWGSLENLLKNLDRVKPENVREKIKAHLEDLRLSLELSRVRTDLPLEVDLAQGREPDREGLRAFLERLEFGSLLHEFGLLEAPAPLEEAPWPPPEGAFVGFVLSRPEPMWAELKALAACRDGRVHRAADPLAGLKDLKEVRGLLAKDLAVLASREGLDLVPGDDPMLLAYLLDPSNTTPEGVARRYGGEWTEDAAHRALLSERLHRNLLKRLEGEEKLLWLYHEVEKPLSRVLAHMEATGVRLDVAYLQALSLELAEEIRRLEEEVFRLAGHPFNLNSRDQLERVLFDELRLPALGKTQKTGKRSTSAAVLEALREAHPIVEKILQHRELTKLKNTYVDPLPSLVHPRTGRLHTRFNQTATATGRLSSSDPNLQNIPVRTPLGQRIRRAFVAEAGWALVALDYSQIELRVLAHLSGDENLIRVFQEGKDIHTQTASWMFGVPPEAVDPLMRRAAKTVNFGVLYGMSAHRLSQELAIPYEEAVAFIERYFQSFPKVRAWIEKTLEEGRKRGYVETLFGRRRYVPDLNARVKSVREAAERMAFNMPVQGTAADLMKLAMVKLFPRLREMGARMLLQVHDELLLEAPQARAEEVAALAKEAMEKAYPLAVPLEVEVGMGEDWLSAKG
Method: as §1

[3] = target: T1, Taq DNA polymerase; experiment: inhibition; hairpin extension assay; conditions: tags: rTaq, 94 kDa, Roche Molecular Systems / Perkin Elmer; stem-loop dimer
Method: as §1

[4] = target: T1, Taq DNA polymerase; experiment: filter; conditions: tags: rTaq, 94 kDa, Roche Molecular Systems / Perkin Elmer; stem-loop dimer
Method: For isolation of DNA molecules that bind tightly to Taq polymerase and Tth polymerase, respectively, the nitrocellulose filter partitioning method was used as described in the SELEX Patent Applications. Briefly, gel-purified ^32P ss-DNA pools labeled at the 5' end were suspended in the binding buffer, heated to 80° C., chilled on ice and then brought to room temperature. The DNA (5–10 pM) was then incubated for 15 minutes at room temperature with varying amounts of the target polymerase in 50 µL of the appropriate binding buffer containing 0.1 µg of tRNA and 0.01% hSA. The DNA concentrations were kept lower than 100 pM to ensure equilibrium in the presence of excess protein concentrations. After 15 minutes the binding reaction mixtures were passed through pre-wet nitrocellulose/cellulose acetate mixed matrix filters (0.45 µm pore size, Millipore Corporation, Bedford, Mass.) and the filters were immediately washed with 5 mL of binding buffer. The amount of DNA bound to the filters was quantitated by measuring the radioactivity of the filters by liquid scintillation counting. The quantity of DNA bound to filters in the absence of protein was used for background correction. The percentage of input DNA retained on each filter was plotted against the corresponding log of the polymerase concentration (FIGS. 1 and 2). […]

[5] = target: T1, Taq DNA polymerase; experiment: inhibition; room temperature 16 h, 12.5 nM Taq; 22 nM at 30 C 1 h; IT50 41 C; conditions: tags: rTaq, 94 kDa, Roche Molecular Systems / Perkin Elmer
Method: (§2) Since the concentration of Taq polymerase used in the assay is 12.5 nM, enzyme inhibition by TQ30 (SEQ ID NO:50) is likely to be a result of stoichiometric binding.
as §1

[6] = target: T2, Tth DNA polymerase; experiment: inhibition; room temperature; IT50 29 C; conditions: tags: rTth, 94 kDa, Roche Molecular Systems / Perkin Elmer
Method: as §2, §1

[7] = target: T1, Taq DNA polymerase; experiment: inhibition; hairpin extension assay, monomer; conditions: tags: rTaq, 94 kDa, Roche Molecular Systems / Perkin Elmer; stem-loop
Method: as §1

[8] = target: T2, Tth DNA polymerase; experiment: inhibition; hairpin extension assay; IT50 35.6 C; conditions: tags: rTth, 94 kDa, Roche Molecular Systems / Perkin Elmer
Method: (§3) Deletion analysis of the full-length TQ21 sequence led to the identification of a 51-mer sequence (Trnc.21 (SEQ ID NO:70) (Table 4)) that retained the ability to inhibit both Taq and Tth polymerases. In addition to the entire 30-nucleotide random region, the Trnc.21 sequence contained 9 and 12 nucleotides from the 5' and 3' fixed regions, respectively (Table 4). […] The calculated $IT50$ values for Taq polymerase and Tth polymerase are 34° C. and 35.6° C., respectively (FIG. 13C). The hairpin extension assays were carried out between the temperatures of 35 and 50° C. for 1 hour with […] Trnc.21. Thus, based on the affinity and the values of $IC50$ and $IT50$, the truncated form of TQ21 is a better inhibitor than the full-length sequence.
as §1, with “conditions.” for “conditions. The amount of extension products were quantitated by phosphorimager. The amounts of products formed in the presence of inhibitor was normalized to the product formed in the absence of an inhibitor to obtain the percent of product.”

[9] = target: T1, Taq DNA polymerase; experiment: inhibition; hairpin extension assay; IT50 34 C; conditions: tags: rTaq, 94 kDa, Roche Molecular Systems / Perkin Elmer
Method: as §3
as §1, with “conditions.” for “conditions. The amount of extension products were quantitated by phosphorimager. The amounts of products formed in the presence of inhibitor was normalized to the product formed in the absence of an inhibitor to obtain the percent of product.”

[10] = target: T1, Taq DNA polymerase; experiment: inhibition; room temperature 16 h, 12.5 nM Taq; 67 nM at 30 C 1 h; IT50 37 C; conditions: tags: rTaq, 94 kDa, Roche Molecular Systems / Perkin Elmer
Method: as §2, §1

T1 sequence (P19821 whole entry, one chain of several): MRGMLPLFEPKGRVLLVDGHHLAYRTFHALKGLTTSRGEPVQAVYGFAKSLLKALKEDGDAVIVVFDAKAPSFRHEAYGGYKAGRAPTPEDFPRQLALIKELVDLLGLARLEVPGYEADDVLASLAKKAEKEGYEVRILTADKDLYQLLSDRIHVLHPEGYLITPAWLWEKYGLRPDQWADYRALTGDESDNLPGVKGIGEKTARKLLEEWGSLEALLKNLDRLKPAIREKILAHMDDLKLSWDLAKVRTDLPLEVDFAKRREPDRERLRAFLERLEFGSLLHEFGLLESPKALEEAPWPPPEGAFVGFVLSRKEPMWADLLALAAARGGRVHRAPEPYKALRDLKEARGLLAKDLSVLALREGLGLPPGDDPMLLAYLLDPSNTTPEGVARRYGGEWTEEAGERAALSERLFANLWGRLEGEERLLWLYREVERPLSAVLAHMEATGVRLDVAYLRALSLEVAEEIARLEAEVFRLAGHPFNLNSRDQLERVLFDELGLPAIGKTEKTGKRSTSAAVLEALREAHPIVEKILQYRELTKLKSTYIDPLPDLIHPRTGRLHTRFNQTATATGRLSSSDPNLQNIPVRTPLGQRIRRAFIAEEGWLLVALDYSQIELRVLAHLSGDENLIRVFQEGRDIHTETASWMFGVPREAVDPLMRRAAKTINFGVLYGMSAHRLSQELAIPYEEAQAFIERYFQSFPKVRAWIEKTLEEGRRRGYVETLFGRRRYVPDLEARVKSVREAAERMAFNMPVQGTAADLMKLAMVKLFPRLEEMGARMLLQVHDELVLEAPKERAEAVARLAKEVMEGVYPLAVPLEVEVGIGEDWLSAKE

B1: D.21-D.30 heterodimer (ssDNA)
DNA: TGGCGGAGCGATCATCTCAGAGCATTCTTAGCGTTTTGTTCTTGTGTATGATTTGCCGGCCAATGTACAGTATTGGCCGGC
- IC50 [1]: ~30 nM
- IC50 [2]: ~30 nM

B2: D.30-D.30 homodimer (ssDNA)
DNA 1: GCCGGCCAATGTACAGTATTGGCCGGC
DNA 2: GCCGGCCAATGTACAGTATTGGCCGGC
modifications: two Trnc.2-30 copies joined with symmetrical 3'-3' branching CPG linker (linker region drawn in figure only)
- IC50 [3]: 14 nM
- Kd [4]: 0.0475 nM

B3: TQ30 (ssDNA)
DNA: TTCTCGGTTGGTCTCTGGCGGAGCAAGACCAGACAATGTACAGTATTGGCCTGATCTTGTGTATGATTCGCTTTTCCC
- IC50 [5]: 6.5 nM
- IC50 [6]: 60 nM

Binder: GCCGGCCAATGTACAGTATTGGCCGGC (ssDNA) [Trnc.2-30]
- IC50 [7]: 48 nM

B4: Trnc.21 (ssDNA)
DNA: TGGCGGAGCGATCATCTCAGAGCATTCTTAGCGTTTTGTTCTTGTGTATGA
- IC50 [8]: 36.5 nM
- IC50 [9]: 21 nM

B5: TQ21 (ssDNA)
DNA: TTCTCGGTTGGTCTCTGGCGGAGCGATCATCTCAGAGCATTCTTAGCGTTTTGTTCTTGTGTATGATTCGCTTTTCCC
- IC50 [10]: 10 nM
- IC50 [6]: 36 nM
